The target of this assay is T1, Elongin BC complex (wild type rat Elongin B and C) (rat, UniProt P62870).
T1 chain 1: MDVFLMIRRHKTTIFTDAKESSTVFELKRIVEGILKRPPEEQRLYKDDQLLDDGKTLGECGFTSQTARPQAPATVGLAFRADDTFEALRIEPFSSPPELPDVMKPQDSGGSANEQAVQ
T1 chain 2: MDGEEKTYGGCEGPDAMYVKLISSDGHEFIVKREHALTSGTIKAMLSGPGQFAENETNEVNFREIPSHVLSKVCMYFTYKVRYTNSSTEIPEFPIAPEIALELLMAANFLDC
The experiment in a line: refolded with wild type Elongin B and C; TSK SP-NPR HPLC, SDS-PAGE, silver staining.

Positions count from the first letter of the chain named. In names and notes the source's numbering stands.

B1: Elongin A deletion mutant 1-680 (other)
chain: MAAESALQVVEKLQARLAANPDPKKLLKYLKKLSVLPITVDILVETGVGKTVNSFRKHEQVGNFARDLVAQWKKLVPVERNNEAEDQDFEKSNSRKRPRDVPQQEEEAEGNYQESWQASGSQPYSPEHRQKKHRKLPELERPHKVAHGHERRDERKRCHKVSPPYSSDPESSDYGHVQSPPPSSPHQMYTDLSRSPEMDQEPIVSHPKPGKVHSNTFQDRLGVSHLGEHQGKGAVSQNKPHKSSHKEKRPVDARGDEKSSVMGREKSHKASSKEESRRLLSEDSAKEKLPSSVVKKEKDREGNSLKKKLSPALDVASDNHFKKPKHKDSEKIKSDKNKQSVDSVDSGRGTGDPLPRAKDKVPNNLKAQEGKVRTNSDRKSPGSLPKVEEMDMDDEFEQPTMSFESYLSYDQPRKKKKKVVKTSGTALGEKGLKKKDSKSTSKNLNSAQKLPKANENKSDKLQPAGAEPTRPRKVPTDVLPALPDIPLPAIQTNYRPLPSLELISSFQPKRKAFSSPQEEEEAGFTGRRMNSKMQVYSGSKCAYLPKMMTLHQQCIRVLKNNIDSIFEVGGVPYSVLEPVLERCTPDQLYRIEECNHVLIEETDQLWKVHCHRDFKEERPEEYESWREMYLRLQDAREQRLRLLTNNIRSAHANKPKGRQAKMAFVNSVAKPPRDVRRRQE
Take B1: the binding result is on record as “binds”.

B2: Elongin A deletion mutant 1-630 (other)
chain: MAAESALQVVEKLQARLAANPDPKKLLKYLKKLSVLPITVDILVETGVGKTVNSFRKHEQVGNFARDLVAQWKKLVPVERNNEAEDQDFEKSNSRKRPRDVPQQEEEAEGNYQESWQASGSQPYSPEHRQKKHRKLPELERPHKVAHGHERRDERKRCHKVSPPYSSDPESSDYGHVQSPPPSSPHQMYTDLSRSPEMDQEPIVSHPKPGKVHSNTFQDRLGVSHLGEHQGKGAVSQNKPHKSSHKEKRPVDARGDEKSSVMGREKSHKASSKEESRRLLSEDSAKEKLPSSVVKKEKDREGNSLKKKLSPALDVASDNHFKKPKHKDSEKIKSDKNKQSVDSVDSGRGTGDPLPRAKDKVPNNLKAQEGKVRTNSDRKSPGSLPKVEEMDMDDEFEQPTMSFESYLSYDQPRKKKKKVVKTSGTALGEKGLKKKDSKSTSKNLNSAQKLPKANENKSDKLQPAGAEPTRPRKVPTDVLPALPDIPLPAIQTNYRPLPSLELISSFQPKRKAFSSPQEEEEAGFTGRRMNSKMQVYSGSKCAYLPKMMTLHQQCIRVLKNNIDSIFEVGGVPYSVLEPVLERCTPDQLYRIEECNHVLIEETDQLWKVHCHRDFKEERPEEYESWREMYL
For B2, the binding result is reported as “binds”.

B3: Elongin A deletion mutant 1-730 (other)
chain: MAAESALQVVEKLQARLAANPDPKKLLKYLKKLSVLPITVDILVETGVGKTVNSFRKHEQVGNFARDLVAQWKKLVPVERNNEAEDQDFEKSNSRKRPRDVPQQEEEAEGNYQESWQASGSQPYSPEHRQKKHRKLPELERPHKVAHGHERRDERKRCHKVSPPYSSDPESSDYGHVQSPPPSSPHQMYTDLSRSPEMDQEPIVSHPKPGKVHSNTFQDRLGVSHLGEHQGKGAVSQNKPHKSSHKEKRPVDARGDEKSSVMGREKSHKASSKEESRRLLSEDSAKEKLPSSVVKKEKDREGNSLKKKLSPALDVASDNHFKKPKHKDSEKIKSDKNKQSVDSVDSGRGTGDPLPRAKDKVPNNLKAQEGKVRTNSDRKSPGSLPKVEEMDMDDEFEQPTMSFESYLSYDQPRKKKKKVVKTSGTALGEKGLKKKDSKSTSKNLNSAQKLPKANENKSDKLQPAGAEPTRPRKVPTDVLPALPDIPLPAIQTNYRPLPSLELISSFQPKRKAFSSPQEEEEAGFTGRRMNSKMQVYSGSKCAYLPKMMTLHQQCIRVLKNNIDSIFEVGGVPYSVLEPVLERCTPDQLYRIEECNHVLIEETDQLWKVHCHRDFKEERPEEYESWREMYLRLQDAREQRLRLLTNNIRSAHANKPKGRQAKMAFVNSVAKPPRDVRRRQEKFGTGGAAVPEKVRIKPAPYTTGSSHVPASNSSSSFHSSPEELAYEGPST
For the molecule B3, the binding result was “binds”.

B4: Elongin A point mutant T549I (other)
chain: MAAESALQVVEKLQARLAANPDPKKLLKYLKKLSVLPITVDILVETGVGKTVNSFRKHEQVGNFARDLVAQWKKLVPVERNNEAEDQDFEKSNSRKRPRDVPQQEEEAEGNYQESWQASGSQPYSPEHRQKKHRKLPELERPHKVAHGHERRDERKRCHKVSPPYSSDPESSDYGHVQSPPPSSPHQMYTDLSRSPEMDQEPIVSHPKPGKVHSNTFQDRLGVSHLGEHQGKGAVSQNKPHKSSHKEKRPVDARGDEKSSVMGREKSHKASSKEESRRLLSEDSAKEKLPSSVVKKEKDREGNSLKKKLSPALDVASDNHFKKPKHKDSEKIKSDKNKQSVDSVDSGRGTGDPLPRAKDKVPNNLKAQEGKVRTNSDRKSPGSLPKVEEMDMDDEFEQPTMSFESYLSYDQPRKKKKKVVKTSGTALGEKGLKKKDSKSTSKNLNSAQKLPKANENKSDKLQPAGAEPTRPRKVPTDVLPALPDIPLPAIQTNYRPLPSLELISSFQPKRKAFSSPQEEEEAGFTGRRMNSKMQVYSGSKCAYLPKMMILHQQCIRVLKNNIDSIFEVGGVPYSVLEPVLERCTPDQLYRIEECNHVLIEETDQLWKVHCHRDFKEERPEEYESWREMYLRLQDAREQRLRLLTNNIRSAHANKPKGRQAKMAFVNSVAKPPRDVRRRQEKFGTGGAAVPEKVRIKPAPYTTGSSHVPASNSSSSFHSSPEELAYEGPSTSSAHLAPVASSSVSYDPRKPAVKKIAPMMAKTIKAFKNRFSRR
Consider B4, for which the binding result is “binds”.

B5: Elongin A point mutant V557E (other)
chain: B4 chain with I549T, V557E
Take B5: the binding result is reported as “binds”.

B6: Elongin A point mutant C554F (other)
chain: B4 chain with I549T, C554F
Consider B6, for which the binding result is “binds”.

B7: Elongin A internal deletion mutant Δ401-440 (other)
chain: MAAESALQVVEKLQARLAANPDPKKLLKYLKKLSVLPITVDILVETGVGKTVNSFRKHEQVGNFARDLVAQWKKLVPVERNNEAEDQDFEKSNSRKRPRDVPQQEEEAEGNYQESWQASGSQPYSPEHRQKKHRKLPELERPHKVAHGHERRDERKRCHKVSPPYSSDPESSDYGHVQSPPPSSPHQMYTDLSRSPEMDQEPIVSHPKPGKVHSNTFQDRLGVSHLGEHQGKGAVSQNKPHKSSHKEKRPVDARGDEKSSVMGREKSHKASSKEESRRLLSEDSAKEKLPSSVVKKEKDREGNSLKKKLSPALDVASDNHFKKPKHKDSEKIKSDKNKQSVDSVDSGRGTGDPLPRAKDKVPNNLKAQEGKVRTNSDRKSPGSLPKVEEMDMDDEFEQPTSKNLNSAQKLPKANENKSDKLQPAGAEPTRPRKVPTDVLPALPDIPLPAIQTNYRPLPSLELISSFQPKRKAFSSPQEEEEAGFTGRRMNSKMQVYSGSKCAYLPKMMTLHQQCIRVLKNNIDSIFEVGGVPYSVLEPVLERCTPDQLYRIEECNHVLIEETDQLWKVHCHRDFKEERPEEYESWREMYLRLQDAREQRLRLLTNNIRSAHANKPKGRQAKMAFVNSVAKPPRDVRRRQEKFGTGGAAVPEKVRIKPAPYTTGSSHVPASNSSSSFHSSPEELAYEGPSTSSAHLAPVASSSVSYDPRKPAVKKIAPMMAKTIKAFKNRFSRR
In the case of B7, the binding result was “binds”.

B8: Elongin A internal deletion mutant Δ561-564 (other)
chain: MAAESALQVVEKLQARLAANPDPKKLLKYLKKLSVLPITVDILVETGVGKTVNSFRKHEQVGNFARDLVAQWKKLVPVERNNEAEDQDFEKSNSRKRPRDVPQQEEEAEGNYQESWQASGSQPYSPEHRQKKHRKLPELERPHKVAHGHERRDERKRCHKVSPPYSSDPESSDYGHVQSPPPSSPHQMYTDLSRSPEMDQEPIVSHPKPGKVHSNTFQDRLGVSHLGEHQGKGAVSQNKPHKSSHKEKRPVDARGDEKSSVMGREKSHKASSKEESRRLLSEDSAKEKLPSSVVKKEKDREGNSLKKKLSPALDVASDNHFKKPKHKDSEKIKSDKNKQSVDSVDSGRGTGDPLPRAKDKVPNNLKAQEGKVRTNSDRKSPGSLPKVEEMDMDDEFEQPTMSFESYLSYDQPRKKKKKVVKTSGTALGEKGLKKKDSKSTSKNLNSAQKLPKANENKSDKLQPAGAEPTRPRKVPTDVLPALPDIPLPAIQTNYRPLPSLELISSFQPKRKAFSSPQEEEEAGFTGRRMNSKMQVYSGSKCAYLPKMMTLHQQCIRVLKNIFEVGGVPYSVLEPVLERCTPDQLYRIEECNHVLIEETDQLWKVHCHRDFKEERPEEYESWREMYLRLQDAREQRLRLLTNNIRSAHANKPKGRQAKMAFVNSVAKPPRDVRRRQEKFGTGGAAVPEKVRIKPAPYTTGSSHVPASNSSSSFHSSPEELAYEGPSTSSAHLAPVASSSVSYDPRKPAVKKIAPMMAKTIKAFKNRFSRR
Take B8: the binding result was “binds”.

B9: Elongin A internal deletion mutant Δ565-568 (other)
chain: B8 chain with I561N, F562I, E563D, V564S
As for B9, the binding result is given as “binds”.

B10: Elongin A deletion mutant 400-773 (other)
chain: TMSFESYLSYDQPRKKKKKVVKTSGTALGEKGLKKKDSKSTSKNLNSAQKLPKANENKSDKLQPAGAEPTRPRKVPTDVLPALPDIPLPAIQTNYRPLPSLELISSFQPKRKAFSSPQEEEEAGFTGRRMNSKMQVYSGSKCAYLPKMMTLHQQCIRVLKNNIDSIFEVGGVPYSVLEPVLERCTPDQLYRIEECNHVLIEETDQLWKVHCHRDFKEERPEEYESWREMYLRLQDAREQRLRLLTNNIRSAHANKPKGRQAKMAFVNSVAKPPRDVRRRQEKFGTGGAAVPEKVRIKPAPYTTGSSHVPASNSSSSFHSSPEELAYEGPSTSSAHLAPVASSSVSYDPRKPAVKKIAPMMAKTIKAFKNRFSRR
Consider B10, for which the binding result is “binds”.

(Values after patent US6084068, “Elongin A and C functional domains” (Oklahoma Medical Research Foundation, dated 2000).)
